Target: β-galactosidase (β-gal, Sigma) (E. coli) [β-galactosidase: P00722]
Test: panning of mixtures with wt scFv13-SecM17 ARM complexes in 10:1, 100:1, 1,000:1 or 10,000:1 excess on immobilized β-gal; 10 clones sequenced per mixture

β-galactosidase (β-gal, Sigma) (E. coli) [β-galactosidase: P00722], sequence (P00722 2-1024 limits assumed): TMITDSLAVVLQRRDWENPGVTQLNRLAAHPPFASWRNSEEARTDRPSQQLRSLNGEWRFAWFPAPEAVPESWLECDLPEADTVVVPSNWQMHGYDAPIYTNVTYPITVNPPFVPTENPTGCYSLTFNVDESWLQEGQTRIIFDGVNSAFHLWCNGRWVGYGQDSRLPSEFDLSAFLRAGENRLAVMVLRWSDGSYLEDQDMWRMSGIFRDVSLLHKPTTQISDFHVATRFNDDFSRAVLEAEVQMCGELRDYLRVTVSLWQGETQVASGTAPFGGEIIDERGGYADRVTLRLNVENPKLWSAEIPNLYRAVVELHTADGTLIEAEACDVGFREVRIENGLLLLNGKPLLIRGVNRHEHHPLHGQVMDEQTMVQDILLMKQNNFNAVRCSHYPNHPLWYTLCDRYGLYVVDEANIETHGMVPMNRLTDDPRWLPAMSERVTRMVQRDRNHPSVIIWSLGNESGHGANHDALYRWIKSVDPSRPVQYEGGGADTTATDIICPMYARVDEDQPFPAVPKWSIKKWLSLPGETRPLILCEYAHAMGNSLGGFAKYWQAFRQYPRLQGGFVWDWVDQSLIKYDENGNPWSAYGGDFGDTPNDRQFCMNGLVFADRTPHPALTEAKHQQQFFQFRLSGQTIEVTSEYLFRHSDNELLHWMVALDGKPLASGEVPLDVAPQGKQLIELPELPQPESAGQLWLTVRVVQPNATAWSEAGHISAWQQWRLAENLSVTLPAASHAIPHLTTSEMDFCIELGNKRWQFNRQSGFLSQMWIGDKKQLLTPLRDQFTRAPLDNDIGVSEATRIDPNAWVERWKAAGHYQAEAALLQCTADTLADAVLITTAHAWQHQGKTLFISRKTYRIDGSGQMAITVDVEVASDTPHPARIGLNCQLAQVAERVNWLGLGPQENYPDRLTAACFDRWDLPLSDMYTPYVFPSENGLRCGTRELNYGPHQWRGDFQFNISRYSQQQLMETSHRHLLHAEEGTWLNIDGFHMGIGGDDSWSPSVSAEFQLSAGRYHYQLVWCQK

scFv13-R4-SecM17 fusion
share of sequenced clones recovered after panning: 100%
